Consider 18 molecules from US20080044423A1 (AstraZeneca / MedImmune, published 2008).

Changes are numbered by the printed parent chain. Numbers in names are those of the source. Where two headings read alike, the source gives them in different places.

Experiment [1] addresses T1, human IL-17A, untagged, E. coli derived (in house or Peprotech) (human, UniProt Q16552 24-155). Put plainly: cell-based or functional assay.
The target in experiment [2] is T2, human IL-17A derived from the HEK-EBNA expression system (human, UniProt Q16552 24-155). Put plainly: cell-based or functional assay.
Experiment [3] concerns the target T3, cynomolgus IL-17A (cynomolgus, UniProt Q16552 24-155 (human entry), limits assumed).
T3 chain: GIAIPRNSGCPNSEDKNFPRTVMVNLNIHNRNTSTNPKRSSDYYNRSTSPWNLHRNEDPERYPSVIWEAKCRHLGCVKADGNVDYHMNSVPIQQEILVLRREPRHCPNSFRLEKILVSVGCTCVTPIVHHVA
The experiment can be described thus: cell-based or functional assay.

Experiment [4] concerns the target T1, human IL-17A, untagged, E. coli derived …. Put plainly: SPR BIAcore 2000; IgG1 amine-coupled on CM3, IL-17A 0.78-50 nM as analyte; 1:1 Langmuir fit. Background: SPR reads the build-up and loss of mass on a sensor chip optically.
For experiment [5], the target named is T4, Human IL-17A-Flag-His10 (HEK) (human, UniProt Q16552 24-155).
T4 construct: may be the same protein as the HIS FLAG IL-17A; not shown: Flag-His10 tag
Described as above.

Experiment [6] addresses T3, cynomolgus IL-17A. The experiment is described as above.
The target of experiment [7] is T1, human IL-17A, untagged, E. coli derived …. Put plainly: cell-based or functional assay. The source holds these as a separate data set.
Experiment [8] has the same target. The experiment can be described thus: cell-based or functional assay. The source holds these as a separate data set.
The target is the same in experiment [9]. Put plainly: SPR BIAcore 2000; IgG1 amine-coupled on CM3, IL-17A 0.78-50 nM as analyte; Bivalent Analyte fit (kd1/ka1).
The target in experiment [10] is T3, cynomolgus IL-17A. The experiment is described as above.
Experiment [11] deals with T1, human IL-17A, untagged, E. coli derived …. The experiment can be described thus: cell-based or functional assay. The source holds these as a separate data set.
Experiment [12] addresses T2, human IL-17A derived from the HEK-EBNA …. Put plainly: estimated from pA2 (Schild) analysis in the HT1080 IL-6 release assay.
In experiment [13] the target is T5, HIS FLAG tagged human IL-17A (in house HEK EBNA derived) (human, UniProt Q16552 24-155).
T5 construct: glycosylated, from HEK EBNA cells; also called HIS FLAG IL-17A; HIS FLAG human IL-17A; not shown: HIS FLAG tag
Put plainly: HTRF receptor-ligand assay: inhibition of HIS FLAG IL-17A binding IL-17RA Fc. For orientation: Time-resolved FRET reads energy transfer from a long-lived donor to a nearby acceptor.

The target in experiment [14] is T5, HIS FLAG tagged human IL-17A (in house …). Described as above. The source holds these as a separate data set.
The target is the same in experiment [15]. The experiment can be described thus: HTRF receptor-ligand assay: inhibition of HIS FLAG IL-17A binding IL-17RA Fc; scFv, non-germlined sequence.
The target in another experiment is T6, Antibody 2 IgG1.
T6 construct: human IgG1, lambda; constant regions not in the listing; also called Antibody 02
The experiment can be described thus: HTRF epitope competition vs HIS FLAG IL-17A binding the IgG.

Experiment [16] concerns the target T7, Biosource mAb (reference anti-IL-17 mAb).
T7 construct: murine (detected with anti-murine Fc)
The description is as above.

The target in experiment [17] is human IL-17A receptor on HT1080 cells (human). The experiment can be described thus: cell-based or functional assay.

T6 sequence (VH, as listed by the source): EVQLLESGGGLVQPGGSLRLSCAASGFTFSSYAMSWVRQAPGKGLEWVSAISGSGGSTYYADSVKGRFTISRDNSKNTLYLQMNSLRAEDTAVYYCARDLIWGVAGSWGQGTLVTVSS

B1: Antibody 7 IgG1 (antibody, V domains shown)
VH: not shown
VL: NFMLTQPHSVSESPGKTVTISCTRSSGSLANYYVQWYQQRPGSSPTIVIFANNQRPSGVPDRFSGSIDSSSNSASLTISGLKTEDEADYYCQTYDPYSVVFGGGTKLTVL
notes: human IgG1, lambda; constant regions not in the listing; also called Antibody 07
As for B1, in [1], the “RA synovial fibroblast IL-8, Mean IC50 versus IL-17A (1 nM) and TNFα (0.1 ng/ml)” value came out at 4.97 nM. Besides, the “RA synovial fibroblast IL-8, Mean IC50 versus IL-17A (2 nM)” value in [1] was 2.85 nM. In addition, the figures for the “HT1080 IL-6 release, IgG IC50” value (in [2]; with cynomolgus IL-17A [3]) were 0.7 nM and 5 nM, respectively. Also, in [2], the “HT1080 IL-6 release, IgG geometric mean IC50 (n = 15)” value came to 0.8 nM. Further, in the experiment with cynomolgus IL-17A [3], the “HT1080 IL-6 release, IgG geometric mean IC50 (n = 12)” value was 4.8 nM. The Kd in [4] is 0.195 nM; in [5], 0.171 nM; with cynomolgus IL-17A [6], 0.512 nM; in experiment [9], 2.1 nM; with cynomolgus IL-17A [10], 1.34 nM; in experiment [12] it was 0.553 nM. For the same molecule, in experiment [7], the “cartilage explant synergised IL-6 response, Mean IC50” value is 0.61 nM. The “chondrocyte IL-8 release, geometric mean IC50 at 2 nM IL-17A” value in experiment [8] was determined as 1.6 nM; in experiment [11], 1.3 nM.

B2: Antibody 4 IgG1 (antibody, V domains shown)
VH: not shown
VL: B1 VL with S44A, G80R, T93S, D95S, Y97T
For the molecule B2, the “HT1080 IL-6 release, IgG IC50” value in experiment [2] turned out to be 0.9 nM. Also, in the experiment with cynomolgus IL-17A [3], the “Fold difference in cross-reactivity (IgG)” value (“Fold difference” below) was 8 fold and the “HT1080 IL-6 release, IgG IC50” value was found to be 7.3 nM.

B3: Antibody 10 IgG1 (antibody, V domains shown)
VH: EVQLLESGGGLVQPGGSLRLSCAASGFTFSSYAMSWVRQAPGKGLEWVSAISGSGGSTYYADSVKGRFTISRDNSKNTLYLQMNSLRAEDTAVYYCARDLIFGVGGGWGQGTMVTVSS
VL: B1 VL with S44A, G80R, T93S, Y97H
Regarding B3, the “HT1080 IL-6 release, IgG IC50” value in [2] was 2.2 nM. Besides, in the experiment with cynomolgus IL-17A [3], the “Fold difference” value is 2 fold and the “HT1080 IL-6 release, IgG IC50” value is 4.9 nM.

B4: Antibody 1 scFv (scFv, V domains shown)
VH: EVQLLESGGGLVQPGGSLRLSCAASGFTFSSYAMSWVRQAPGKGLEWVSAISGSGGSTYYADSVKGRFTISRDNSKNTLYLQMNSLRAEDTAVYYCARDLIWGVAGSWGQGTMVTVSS
VL: B1 VL with S44A, G80R, T93S, P96D, Y97S
notes: scFv (one chain); also called TINA12
In the case of B4, the “HT1080 IL-6 release, scFv: % inhibition printed in the IC50 column (no IC50 reached)” value in [2] is 70%. The concentration for half-maximal inhibition (IC50) in [13] and in [14] was 12 nM in each case.

B5: Antibody 5 IgG1 (antibody, V domains shown)
VH: not shown
VL: B1 VL with S44A, G80R, T93S, D95N, P96H, Y97K, S98D, V99I
B5: in experiment [2], the “HT1080 IL-6 release, IgG IC50” value was 1.4 nM. In the experiment with cynomolgus IL-17A [3], the “Fold difference” value was 28 fold and the “HT1080 IL-6 release, IgG IC50” value worked out at 39.7 nM.

B6: Antibody 9 IgG1 (antibody, V domains shown)
VH: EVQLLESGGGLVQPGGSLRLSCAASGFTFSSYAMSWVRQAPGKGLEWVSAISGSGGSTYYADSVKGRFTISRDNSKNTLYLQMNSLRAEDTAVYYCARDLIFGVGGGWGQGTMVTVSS
VL: B1 VL with S44A, G80R, T93S, D95S, Y97H
In the case of B6, in experiment [2], the “HT1080 IL-6 release, IgG IC50” value is 2.3 nM. Also, in the experiment with cynomolgus IL-17A [3], the “Fold difference” value stood at 4 fold and the “HT1080 IL-6 release, IgG IC50” value came to 9.2 nM.

B7: Antibody 12 IgG1 (antibody, V domains shown)
VH: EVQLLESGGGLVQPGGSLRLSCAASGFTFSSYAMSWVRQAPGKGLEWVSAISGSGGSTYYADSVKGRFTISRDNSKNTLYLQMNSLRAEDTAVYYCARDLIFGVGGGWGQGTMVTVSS
VL: B1 VL with S44A, G80R
As for B7, the “HT1080 IL-6 release, IgG IC50” value in experiment [2] was 2.1 nM. Moreover, in the experiment with cynomolgus IL-17A [3], the “Fold difference” value amounted to 2 fold and the “HT1080 IL-6 release, IgG IC50” value was 4.2 nM.

B8: Antibody 3 IgG1 (antibody, V domains shown)
VH: not shown
VL: B1 VL with S44A, G80R, T93S, D95S, Y97H
B8: the “HT1080 IL-6 release, IgG IC50” value in experiment [2] came out at 0.8 nM. In the experiment with cynomolgus IL-17A [3], the “Fold difference” value was 16 fold and the “HT1080 IL-6 release, IgG IC50” value came to 13 nM.

B9: Antibody 13 scFv (non-germlined) (scFv, V domains shown)
VH: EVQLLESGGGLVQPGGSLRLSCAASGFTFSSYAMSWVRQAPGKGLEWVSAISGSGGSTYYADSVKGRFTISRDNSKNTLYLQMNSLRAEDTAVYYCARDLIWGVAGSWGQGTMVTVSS
VL: B1 VL with S44A, G80R, T93S, Y97R, S98V
notes: scFv (one chain)
In the case of B9, the “HT1080 IL-6 release, scFv IC50” value in [2] was 35.9 nM; with cynomolgus IL-17A [3], 147 nM. Moreover, the IC50 in experiment [13] is 1.6 nM.

B10: Antibody 6 scFv (non-germlined) (scFv, V domains shown)
VH: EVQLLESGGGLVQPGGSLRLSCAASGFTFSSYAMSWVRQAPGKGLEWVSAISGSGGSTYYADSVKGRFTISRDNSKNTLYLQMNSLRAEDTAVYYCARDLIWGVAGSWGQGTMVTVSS
VL: B1 VL with S44A, G80R, T93S, D95S, Y97S
notes: scFv (one chain)
Turning to B10, the figures for the “HT1080 IL-6 release, scFv IC50” value (in experiment [2]; with cynomolgus IL-17A [3]) were 31.2 nM and 136 nM, respectively. The molecule also had an IC50 in experiment [13] of 1.7 nM.

B11: Antibody 11 scFv (scFv, V domains shown)
VH: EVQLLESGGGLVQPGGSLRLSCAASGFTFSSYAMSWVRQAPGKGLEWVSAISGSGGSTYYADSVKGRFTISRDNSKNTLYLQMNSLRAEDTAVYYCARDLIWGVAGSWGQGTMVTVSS
VL: B1 VL with S44A, G80R, T93S, D95S, Y97H
notes: scFv (one chain)
Turning to B11, the “HT1080 IL-6 release, scFv IC50” value in experiment [2] came to 8.2 nM. For the same molecule, in the experiment with cynomolgus IL-17A [3], the “HT1080 IL-6 release, scFv: % inhibition printed in the IC50 column (no IC50 reached)” value amounted to 20%. Also, the 50% inhibitory concentration (IC50) in experiment [13] stood at 0.6 nM.

B12: Antibody 8 scFv (scFv, V domains shown)
VH: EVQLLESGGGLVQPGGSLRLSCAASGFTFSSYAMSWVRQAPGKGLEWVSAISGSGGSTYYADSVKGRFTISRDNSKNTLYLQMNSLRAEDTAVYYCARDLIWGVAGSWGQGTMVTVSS
VL: B1 VL with S44A, G80R, T93S, D95N, P96H, Y97K, S98D, V99I
notes: scFv (one chain)
With B12, the entries for the “HT1080 IL-6 release, scFv IC50” value (in experiment [2]; in the experiment with cynomolgus IL-17A [3]) were 34.3 nM and 96.4 nM, respectively. For the same molecule, in [13], the IC50 stood at 0.7 nM.

B13: Antibody 15 scFv (non-germlined) (scFv, V domains shown)
VH: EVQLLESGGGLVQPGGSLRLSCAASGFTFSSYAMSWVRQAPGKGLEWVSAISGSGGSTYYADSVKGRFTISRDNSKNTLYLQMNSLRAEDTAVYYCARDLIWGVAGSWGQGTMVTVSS
VL: B1 VL with S44A, G80R, T93S, D95S, Y97T
notes: scFv (one chain)
As for B13, the “HT1080 IL-6 release, scFv IC50” value in [2] amounted to 21.7 nM; with cynomolgus IL-17A [3], 159 nM. The molecule also gave an IC50 in experiment [13] of 1.6 nM.

B14: Antibody 14 scFv (non-germlined) (scFv, V domains shown)
VH: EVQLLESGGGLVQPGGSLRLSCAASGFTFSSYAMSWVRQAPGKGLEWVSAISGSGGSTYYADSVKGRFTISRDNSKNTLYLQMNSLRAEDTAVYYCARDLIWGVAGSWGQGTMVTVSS
VL: B1 VL with S44A, G80R, T93S, Y97T, S98N, V99Q
notes: scFv (one chain)
Take B14: the figures for the “HT1080 IL-6 release, scFv IC50” value (in experiment [2]; with cynomolgus IL-17A [3]) were 36.7 nM and 99.5 nM, respectively. For the same molecule, the IC50 in experiment [13] stood at 2.5 nM.

B15: Antibody 16 scFv (scFv, V domains shown)
VH: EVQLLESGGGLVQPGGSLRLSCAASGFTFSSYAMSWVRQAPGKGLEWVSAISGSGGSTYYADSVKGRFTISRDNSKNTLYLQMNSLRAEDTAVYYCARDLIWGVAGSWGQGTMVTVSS
VL: B1 VL with S44A, G80R
notes: scFv (one chain)
As for B15, the “HT1080 IL-6 release, scFv IC50” value in experiment [2] was 13 nM; with cynomolgus IL-17A [3], 249 nM.

B16: Antibody 2 scFv (non-germlined) (scFv, V domains shown)
VH: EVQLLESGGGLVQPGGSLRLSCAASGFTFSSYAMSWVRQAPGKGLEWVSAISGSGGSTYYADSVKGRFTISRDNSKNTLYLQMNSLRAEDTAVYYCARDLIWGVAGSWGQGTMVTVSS
VL: B1 VL with S44A, G80R, T93S, Y97H
notes: scFv (one chain)
Consider B16, for which the figures for the “HT1080 IL-6 release, scFv IC50” value (in [2]; with cynomolgus IL-17A [3]) were 16.2 nM and 99 nM, respectively. The IC50 in [15] was found to be 0.7 nM.

B17: dog IL-17A (in house E. Coli derived) (ligand)
chain: GIAFPQNPGCRNTEDKNFPQHVKVNLNILNRNTNSRRPSDYYNRSTSPWNLHRNEDPERYPSVIWEAKCRHLGCVNNEGNINYHMNSVPIQQEILVLRRESQHCPHSFRLEKMLVAVGCTCVTPIVRHVA
With B17, the IC50 with Antibody 2 IgG1 came to 34 nM; in experiment [16] it was 50 nM.

B18: Mutant IL-17A (L74Q, G75R, I77V, D80E, N82K, V83L, Y85H) with C-terminal His tag (HEK/EBNA) (ligand)
chain: GITIPRNPGCPNSEDKNFPRTVMVNLNIHNRNTNTNPKRSSDYYNRSTSPWNLHRNEDPERYPSVIWEAKCRHQRCVNAEGKLDHHMNSVPIQQEILVLRREPPHCPNSFRLEKILVSVGCTCVTPIVHHVAHHHHH
Regarding B18, in experiment [17], the “IL-6 release from HT1080 cells, EC50” value turned out to be 2.36 nM.

By IC50 is commonly meant the point on the concentration scale where inhibition reaches its midpoint. Read a low IC50 as greater potency.
